Test results as given in PMC9712102.

Columns and labels:
[1] = molecular target: Gp57, purified (phage SECΦ27); experiment: SEC-MALS; co-purified CapRel^SJ46–Gp57 complex at 5 mg ml^−1; 50 mM HEPES pH 7.5, 500 mM KCl, 500 mM NaCl, 10 mM MgCl2, 1 mM TCEP, 0.002% mellitic acid
[2] = molecular target: Gp57 (L114P I115F), purified (phage SECΦ27); experiment: ITC; CapRel^SJ46 (or variant) at 150 μM in the syringe titrated into Gp57 (or variant) at 10 μM in the cell; 25 °C; 50 mM HEPES pH 7.5, 500 mM KCl, 500 mM NaCl, 150 mM imidazole, 10 mM MgCl2, 1 mM TCEP, 0.002% mellitic acid
[3] = molecular target: Gp57, purified (phage SECΦ27); experiment: as above
CapRel^SJ46–Flag = experiment: immunoprecipitation followed by mass spectrometry
[4] = molecular target: CapRel^SJ46, purified full-length; experiment: ITC; conditions: CapRelSJ46 titrated into Gp57(L114P I115F)

## CapRel^SJ46(Y155A), co-purified with Gp57 (natural protein)
[1]
  stoichiometry N: 1

## CapRel^SJ46, purified full-length (natural protein)
[2]
  fold decrease in affinity against wild-type Gp57: > 60 fold
[3]
  stoichiometry N: 1

## Gp57, major capsid protein of SECΦ27, made by wild-type phage during infection L114P
CapRel^SJ46–Flag; 40 min after infection, bar = mean of 2 biological replicates, parent: est. 0.33, read off a plot
  response (SC(Gp57)/SC(CapRelSJ46)): 0.07
CapRel^SJ46–Flag; replicate1, 15 min after infection, CapRelSJ46 SC 276 (L114P mutant), 286 (WT), parent: 12
  response (spectral counts (SC)): 0
CapRel^SJ46–Flag; replicate1, 40 min after infection, CapRelSJ46 SC 251 (L114P mutant), 217 (WT), parent: 64
  response (spectral counts (SC)): 25
CapRel^SJ46–Flag; replicate2, 15 min after infection, CapRelSJ46 SC 145 (L114P mutant), 161 (WT), parent: 0
  response (spectral counts (SC)): 0
CapRel^SJ46–Flag; replicate2, 40 min after infection, CapRelSJ46 SC 156 (L114P mutant), 138 (WT), parent: 52
  response (spectral counts (SC)): 6

## Gp57, purified L114P; I115F
[4]
  Kd: 23.7 µM
